# Data published in PMC4596688, “Structural determinants of nuclear export signal orientation in binding to exportin CRM1” (eLife, 2015).
# Ends that are not written are not given here. * marks the point of attachment. FITC = O=C1OC2(c3ccc(O)cc3Oc3cc(O)ccc32)c2ccc(NC(=S)*)cc21
# B1: FITC-PKI^NES peptide (FITC-SGNSNELALKLAGLDINKT) (peptide)
# peptide: {FITC}-SGNSNELALKLAGLDINKT
# notes: also called fluorescent-labeled PKI^NES peptide; source: synthetic peptide (GenScript)
# B2: hRio2^NES peptide used for crystallization (GGSY-389RSFEMTEFNQALEEI403) (peptide)
# peptide: GGSYRSFEMTEFNQALEEI
# modifications: not fully specified (residue 9); printed as GGSY^389^RSFEMTEFNQALEEI^403^
# notes: residues before the NES that are left after TEV cleavage; NES of human Rio2 (hRio2), residues 389-403; The text speaks of a native and of a selenomethionine peptide; Residues 391-403 modelled; also called Selenomethione-hRio2; source: E. coli BL-21(DE3), MBP fusion purified (amylose, ion exchange), cleaved with TEV, peptide isolated by gel filtration; not shown: MBP, N-terminal, cleaved
# B3: hRio2^NES-R peptide used for crystallization (peptide)
# peptide: GGSYGKIEELAQNFETMEFSR
# modifications: not fully specified (residue 17)
# notes: also called Selenomethione-hRio2-R; source: E. coli BL-21(DE3), MBP fusion purified (amylose, ion exchange), cleaved with TEV, peptide isolated by gel filtration; not shown: MBP, N-terminal, cleaved
# B4: CPEB4^NES-R peptide used for crystallization (peptide)
# peptide: GGSYRMIDILSSELSHMDFTR
# notes: also called CPEB4-R; source: E. coli BL-21(DE3), MBP fusion purified (amylose, ion exchange), cleaved with TEV, peptide isolated by gel filtration; not shown: MBP, N-terminal, cleaved
# B5: PKI^NES-Flip3 peptide used for crystallization (peptide)
# peptide: GGSYRSFDMNELALKLAGLD
# notes: PKI NES helix with the ΦXΦ motif moved to the N-terminus and made larger (FDM), after GGSY left from TEV cleavage; also called PKI-Flip3; source: E. coli BL-21(DE3), MBP fusion purified (amylose, ion exchange), cleaved with TEV, peptide isolated by gel filtration; not shown: MBP, N-terminal, cleaved
# B6: CPEB4^NES peptide used for crystallization (GGSY-379RTFDMHSLESSLIDI393) (peptide)
# peptide: GGSYRTFDMHSLESSLIDI
# notes: residues before the NES that are left after TEV cleavage; NES of CPEB4, residues 379-393; source: E. coli BL-21(DE3), MBP fusion purified (amylose, ion exchange), cleaved with TEV, peptide isolated by gel filtration; not shown: MBP, N-terminal, cleaved
# Molecular target: Full-length human CRM1 (HsCRM1) (human, UniProt O14980 1-1071)
# Sequence (O14980 whole entry): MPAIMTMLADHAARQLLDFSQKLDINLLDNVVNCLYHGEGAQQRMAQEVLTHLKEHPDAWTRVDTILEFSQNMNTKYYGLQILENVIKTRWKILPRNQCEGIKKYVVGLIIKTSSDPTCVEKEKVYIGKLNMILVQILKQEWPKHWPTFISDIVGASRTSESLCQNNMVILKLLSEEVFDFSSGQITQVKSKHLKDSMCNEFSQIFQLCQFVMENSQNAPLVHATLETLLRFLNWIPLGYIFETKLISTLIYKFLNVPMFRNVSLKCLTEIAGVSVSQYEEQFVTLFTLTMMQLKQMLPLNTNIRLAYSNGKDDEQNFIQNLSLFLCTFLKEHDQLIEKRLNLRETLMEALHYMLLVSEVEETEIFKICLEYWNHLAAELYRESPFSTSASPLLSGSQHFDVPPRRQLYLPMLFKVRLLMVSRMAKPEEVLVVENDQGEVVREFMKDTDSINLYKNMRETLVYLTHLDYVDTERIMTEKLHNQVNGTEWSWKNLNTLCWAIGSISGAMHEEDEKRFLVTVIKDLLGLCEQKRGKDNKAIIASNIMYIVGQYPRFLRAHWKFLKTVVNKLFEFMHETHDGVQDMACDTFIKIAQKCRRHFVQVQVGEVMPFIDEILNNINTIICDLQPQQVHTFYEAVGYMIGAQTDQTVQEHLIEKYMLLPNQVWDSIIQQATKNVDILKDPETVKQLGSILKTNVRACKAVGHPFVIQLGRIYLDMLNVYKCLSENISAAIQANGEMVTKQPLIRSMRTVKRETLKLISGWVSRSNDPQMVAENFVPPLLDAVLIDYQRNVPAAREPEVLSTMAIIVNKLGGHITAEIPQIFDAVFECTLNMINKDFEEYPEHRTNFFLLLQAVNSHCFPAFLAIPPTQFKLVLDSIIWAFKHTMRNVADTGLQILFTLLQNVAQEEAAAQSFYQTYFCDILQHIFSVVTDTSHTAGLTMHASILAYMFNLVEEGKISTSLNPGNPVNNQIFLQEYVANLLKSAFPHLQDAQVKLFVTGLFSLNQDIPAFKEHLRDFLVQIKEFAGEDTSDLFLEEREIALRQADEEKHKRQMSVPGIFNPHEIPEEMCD
# Experiment: differential bleaching monitored with a microscale thermophoresis instrument (direct titration); HsCRM1 serially diluted from 40 μM to 1.2 nM, mixed 1:1 with 120 μM ScRan-GTP and 40 nM FITC-PKI^NES; TB buffer with 15% glycerol, 0.05% Tween-20; 1 hr, room temperature
# Details: both partners purified
row,Binder,binding result
1,B1,binds

# Molecular target: CRM1* (ScCRM1 residues 1-1058, Δ377-413, V441D, 537DLTVK541 to GLCEQ) (Saccharomyces cerevisiae, UniProt P30822 1-1058, Δ377–413 | V441D | 537DLTVK541 to GLCEQ)
# Experiment: crystal structure; quaternary CRM1*-RanGppNHp-RanBP1 (Yrb1p)-NES peptide complexes, assembled 1:3:10 and purified by gel filtration in GF buffer; crystals in 17% PEG3350, 100 mM Bis-Tris pH 6.4, 200 mM ammonium nitrate, 10 mM spermine HCl
# Details: both partners purified
row,Binder,binding result
1,B2,binds
2,B3,binds
3,B4,binds
4,B5,binds
5,B6,binds
